Reference: patent publication US20180155451A1 (published 2018)

B1: GpH7-A5/GpH7-B3 variant Y300_01G/GpL16-k0 (antibody, human IgG1, kappa)
heavy 1: not shown
heavy 2: not shown
light: DIVMTQSPLSLPVTPGEPASISCQASESLVHSNRNTYLHWYLQKPGQSPQLLIYKVSNRFSGVPDRFSGSGSGTDFTLKISRVEAEDVGVYYCSQNTHVPPTFGQGTKVEIERTVAAPSVFIFPPSDEQLKSGTASVVCLLNNFYPREAKVQWKVDNALQSGNSQESVTEQDSKDSTYSLSSTLTLSKADYEKHKVYACEVTHQGLSSPVTKSFNRGEC
notes: heterodimerized IgG1, one H chain mutated; also called He Ab
B2: GpH7-A5/GpH7-B3 variant A327_04F/GpL16-k0 (antibody, human IgG1, kappa)
heavy 1: not shown
heavy 2: not shown
light: B1 light
notes: as for B1
B3: GpH7-A5/GpH7-B3 variant A327_05P/GpL16-k0 (antibody, human IgG1, kappa)
heavy 1: not shown
heavy 2: not shown
light: B1 light
notes: as for B1
B4: GpH7-A5/GpH7-B3 variant A327_12R/GpL16-k0 (antibody, human IgG1, kappa)
heavy 1: not shown
heavy 2: not shown
light: B1 light
notes: as for B1
B5: GpH7-A5/GpH7-B3 variant S337_04F/GpL16-k0 (antibody, human IgG1, kappa)
heavy 1: not shown
heavy 2: not shown
light: B1 light
notes: heterodimerized antibody, mutation in one H chain only; also called He Ab
B6: GpH7-A5/GpH7-B3 variant S337_06M/GpL16-k0 (antibody, human IgG1, kappa)
heavy 1: not shown
heavy 2: not shown
light: B1 light
notes: as for B5
B7: GpH7-A5/GpH7-B3 variant S337_07I/GpL16-k0 (antibody, human IgG1, kappa)
heavy 1: not shown
heavy 2: not shown
light: B1 light
notes: as for B5
B8: GpH7-A5/GpH7-B3 variant S337_08L/GpL16-k0 (antibody, human IgG1, kappa)
heavy 1: not shown
heavy 2: not shown
light: B1 light
notes: as for B5
B9: GpH7-A5/GpH7-B3 variant S337_09D/GpL16-k0 (antibody, human IgG1, kappa)
heavy 1: not shown
heavy 2: not shown
light: B1 light
notes: as for B5
B10: GpH7-A5/GpH7-B3 variant S337_10E/GpL16-k0 (antibody, human IgG1, kappa)
heavy 1: not shown
heavy 2: not shown
light: B1 light
notes: as for B5
B11: GpH7-A5/GpH7-B3 variant S337_11K/GpL16-k0 (antibody, human IgG1, kappa)
heavy 1: not shown
heavy 2: not shown
light: B1 light
notes: as for B5
B12: GpH7-A5/GpH7-B3 variant S337_12R/GpL16-k0 (antibody, human IgG1, kappa)
heavy 1: not shown
heavy 2: not shown
light: B1 light
notes: as for B5
B13: GpH7-A5/GpH7-B3 variant S337_15Y/GpL16-k0 (antibody, human IgG1, kappa)
heavy 1: not shown
heavy 2: not shown
light: B1 light
notes: as for B5
B14: GpH7-A5/GpH7-B3 variant S337_16H/GpL16-k0 (antibody, human IgG1, kappa)
heavy 1: not shown
heavy 2: not shown
light: B1 light
notes: as for B5
B15: GpH7-A5/GpH7-B3 variant S337_18N/GpL16-k0 (antibody, human IgG1, kappa)
heavy 1: not shown
heavy 2: not shown
light: B1 light
notes: as for B5
B16: GpH7-A5/GpH7-B3 variant S337_19Q/GpL16-k0 (antibody, human IgG1, kappa)
heavy 1: not shown
heavy 2: not shown
light: B1 light
notes: as for B5
B17: GpH7-A5/GpH7-B3 variant S337_20W/GpL16-k0 (antibody, human IgG1, kappa)
heavy 1: not shown
heavy 2: not shown
light: B1 light
notes: as for B5
B18: GpH7-A5/GpH7-B3 variant T335_01G/GpL16-k0 (antibody, human IgG1, kappa)
heavy 1: not shown
heavy 2: not shown
light: B1 light
notes: as for B5
B19: GpH7-A5/GpH7-B3 variant T335_02A/GpL16-k0 (antibody, human IgG1, kappa)
heavy 1: not shown
heavy 2: not shown
light: B1 light
notes: as for B5
B20: GpH7-A5/GpH7-B3 variant T335_05P/GpL16-k0 (antibody, human IgG1, kappa)
heavy 1: not shown
heavy 2: not shown
light: B1 light
notes: as for B5
B21: GpH7-A5/GpH7-B3 variant T335_07I/GpL16-k0 (antibody, human IgG1, kappa)
heavy 1: not shown
heavy 2: not shown
light: B1 light
notes: as for B5
B22: GpH7-A5/GpH7-B3 variant T335_10E/GpL16-k0 (antibody, human IgG1, kappa)
heavy 1: not shown
heavy 2: not shown
light: B1 light
notes: as for B5
B23: GpH7-A5/GpH7-B3 variant T335_12R/GpL16-k0 (antibody, human IgG1, kappa)
heavy 1: not shown
heavy 2: not shown
light: B1 light
notes: as for B5
B24: GpH7-A5/GpH7-B3 variant T335_13S/GpL16-k0 (antibody, human IgG1, kappa)
heavy 1: not shown
heavy 2: not shown
light: B1 light
notes: as for B5
B25: GpH7-A5/GpH7-B3 variant T335_15Y/GpL16-k0 (antibody, human IgG1, kappa)
heavy 1: not shown
heavy 2: not shown
light: B1 light
notes: as for B5
B26: GpH7-A5/GpH7-B3 variant T335_16H/GpL16-k0 (antibody, human IgG1, kappa)
heavy 1: not shown
heavy 2: not shown
light: B1 light
notes: as for B5
B27: GpH7-A5/GpH7-B3 variant T335_18N/GpL16-k0 (antibody, human IgG1, kappa)
heavy 1: not shown
heavy 2: not shown
light: B1 light
notes: as for B5
B28: GpH7-A5/GpH7-B3 variant T335_19Q/GpL16-k0 (antibody, human IgG1, kappa)
heavy 1: not shown
heavy 2: not shown
light: B1 light
notes: as for B5
B29: GpH7-A5/GpH7-B3 variant T335_20W/GpL16-k0 (antibody, human IgG1, kappa)
heavy 1: not shown
heavy 2: not shown
light: B1 light
notes: as for B5
B30: GpH7-A5/GpH7-B3 variant V266_06M/GpL16-k0 (antibody, human IgG1, kappa)
heavy 1: not shown
heavy 2: not shown
light: B1 light
notes: as for B5
B31: GpH7-A5/GpH7-B3 variant Y296_04F/GpL16-k0 (antibody, human IgG1, kappa)
heavy 1: not shown
heavy 2: not shown
light: B1 light
notes: as for B5
B32: GpH7-A5/GpH7-B3 variant Y296_06M/GpL16-k0 (antibody, human IgG1, kappa)
heavy 1: not shown
heavy 2: not shown
light: B1 light
notes: as for B5
B33: GpH7-A5/GpH7-B3 variant Y296_07I/GpL16-k0 (antibody, human IgG1, kappa)
heavy 1: not shown
heavy 2: not shown
light: B1 light
notes: as for B5
B34: GpH7-A5/GpH7-B3 variant Y296_09D/GpL16-k0 (antibody, human IgG1, kappa)
heavy 1: not shown
heavy 2: not shown
light: B1 light
notes: as for B5
B35: GpH7-A5/GpH7-B3 variant Y296_10E/GpL16-k0 (antibody, human IgG1, kappa)
heavy 1: not shown
heavy 2: not shown
light: B1 light
notes: as for B5
B36: GpH7-A5/GpH7-B3 variant Y296_13S/GpL16-k0 (antibody, human IgG1, kappa)
heavy 1: not shown
heavy 2: not shown
light: B1 light
notes: as for B5
B37: GpH7-A5/GpH7-B3 variant Y296_14T/GpL16-k0 (antibody, human IgG1, kappa)
heavy 1: not shown
heavy 2: not shown
light: B1 light
notes: as for B5
B38: GpH7-A5/GpH7-B3 variant Y296_16H/GpL16-k0 (antibody, human IgG1, kappa)
heavy 1: not shown
heavy 2: not shown
light: B1 light
notes: as for B5
B39: GpH7-A5/GpH7-B3 variant Y296_18N/GpL16-k0 (antibody, human IgG1, kappa)
heavy 1: not shown
heavy 2: not shown
light: B1 light
notes: as for B5
B40: GpH7-A5/GpH7-B3 variant Y296_19Q/GpL16-k0 (antibody, human IgG1, kappa)
heavy 1: not shown
heavy 2: not shown
light: B1 light
notes: as for B5
B41: GpH7-A5/GpH7-B3 variant Y296_20W/GpL16-k0 (antibody, human IgG1, kappa)
heavy 1: not shown
heavy 2: not shown
light: B1 light
notes: as for B5
B42: GpH7-A5/GpH7-B3 variant Y300_18N/GpL16-k0 (antibody, human IgG1, kappa)
heavy 1: not shown
heavy 2: not shown
light: B1 light
notes: as for B5

The binders below were run against T1, FcγRIa (human, UniProt P12314 16-292) (assay: SPR (Biacore), relative to GpH7-A5/GpH7-B3/GpL16-k0 = 100).
T1 construct: extracellular domain; also called FcgRI; FcgRIa
Description: (§1) The heterodimerized antibodies He Abs in which one of the H chains was introduced with an alteration were assayed for their binding activities to each activating FcγR and inhibitory FcγR according to the method described in Example 4. […] The activating FcγRs in FIGS. 26, 27, 28, and 29 are FcγRIa, FcγRIIa (R), FcγRIIa (H), and FcγRIIIa, respectively.
(§2) Analysis of interaction between objective antibody and the FcγR was carried out using Biacore T100 (GE Healthcare). HBS-EP+ (GE Healthcare) was used as the running buffer, and the measurement temperature was set to 25° C. Chips produced by immobilizing the antigen peptide by the amine coupling method to a Series S Sencor Chip CM5 (GE Healthcare), or alternatively, chips produced by allowing preliminarily biotinylated antigen peptides to interact with and immobilize onto a Series S Sensor Chip SA (certified) (GE Healthcare) were used. Antibodies of interest were captured onto an antigen peptide-immobilized chip, and allowed to interact to each FcγR diluted with running buffer. To regenerate and repeatedly use the chip, the antibodies captured on the chip were washed off by reacting 10 mM glycine-HCl, pH 1.5.

T1 sequence (P12314 16-292): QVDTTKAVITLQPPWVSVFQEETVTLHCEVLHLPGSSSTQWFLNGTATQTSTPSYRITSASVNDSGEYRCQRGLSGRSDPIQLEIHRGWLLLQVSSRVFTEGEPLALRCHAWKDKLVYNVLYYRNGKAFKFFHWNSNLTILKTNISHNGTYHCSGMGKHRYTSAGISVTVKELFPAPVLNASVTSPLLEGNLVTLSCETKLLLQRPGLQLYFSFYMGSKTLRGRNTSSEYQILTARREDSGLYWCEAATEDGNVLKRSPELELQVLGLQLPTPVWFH

Going from B1 to B2, the “He/Con_1a (Ia binding)” value falls from 116 relative (control = 100) to 99.1 relative (control = 100).

Compared with B3, B4 is lower in “He/Con_1a (Ia binding)” value: 99.3 relative (control = 100) for the first, 86.7 relative (control = 100) for the second.

Each binder was assayed against T2, FcγRIIb (human, UniProt P31994 43-217) in the same assay as above.
T2 construct: extracellular domain; also called FcgRIIb; 2b
T2 sequence (looked up): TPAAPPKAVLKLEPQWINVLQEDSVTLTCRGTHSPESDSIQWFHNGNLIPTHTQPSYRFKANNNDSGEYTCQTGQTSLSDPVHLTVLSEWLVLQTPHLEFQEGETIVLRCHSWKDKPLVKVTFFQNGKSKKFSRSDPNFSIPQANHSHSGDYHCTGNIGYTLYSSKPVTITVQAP
Description: as §1, §2

Going from B1 to B2, the “He/Con_2b (IIb binding)” value rises from 48.4 relative (control = 100) to 63.7 relative (control = 100).

B3 was tested, and the “He/Con_2b (IIb binding)” value was 69.3 relative (control = 100).

What follows are binders tested against T3, FcγRIIa R (human FcγRIIa, allotype R, Arg at position 131), extracellular domain with C-terminal His tag (human, UniProt P12318 34-217) (assay: SPR (Biacore), relative binding vs GpH7-A5/GpH7-B3/GpL16-k0).
T3 construct: extracellular domain; expressed in FreeStyle293 cells; analyte in Biacore; also called 2aR; FcgRIIa R
T3 sequence (looked up): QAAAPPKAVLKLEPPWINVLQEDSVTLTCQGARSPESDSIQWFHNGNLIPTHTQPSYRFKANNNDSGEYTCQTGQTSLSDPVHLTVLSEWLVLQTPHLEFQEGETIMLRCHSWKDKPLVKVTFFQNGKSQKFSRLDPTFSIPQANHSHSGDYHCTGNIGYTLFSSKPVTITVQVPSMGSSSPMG
Description: as §2
The FcγR-binding activity of each antibody was assessed primarily using as an indicator the FcγR-binding activity and dissociation constant for FcγR.

B5 and B6 are the same in He/Con_2aR: 105 relative, control = 100 for the first, 105 relative, control = 100 for the second.

Going from B7 to B8, the He/Con_2aR falls from 109 relative, control = 100 to 107 relative, control = 100.

Going from B9 to B10, the He/Con_2aR falls from 115 relative, control = 100 to 112 relative, control = 100.

Going from B11 to B12, the He/Con_2aR rises from 103 relative, control = 100 to 107 relative, control = 100.

First: B13
Second: B14
The He/Con_2aR of the first is lower: 105 relative, control = 100 for the first, 109 relative, control = 100 for the second.

Going from B15 to B16, the He/Con_2aR falls from 107 relative, control = 100 to 106 relative, control = 100.

Compared with B17, B18 is lower in He/Con_2aR: 110 relative, control = 100 for the first, 104 relative, control = 100 for the second.

First: B19
Second: B20
The He/Con_2aR of the first is lower: 102 relative, control = 100 for the first, 104 relative, control = 100 for the second.

Compared with B21, B22 is higher in He/Con_2aR: 109 relative, control = 100 for the first, 111 relative, control = 100 for the second.

Compared with B23, B24 is higher in He/Con_2aR: 100 relative, control = 100 for the first, 110 relative, control = 100 for the second.

Compared with B25, B26 is lower in He/Con_2aR: 111 relative, control = 100 for the first, 108 relative, control = 100 for the second.

B27 and B28 are the same in He/Con_2aR: 106 relative, control = 100 for the first, 106 relative, control = 100 for the second.

First: B29
Second: B30
The He/Con_2aR of the first is lower: 109 relative, control = 100 for the first, 150 relative, control = 100 for the second.

First: B31
Second: B32
The He/Con_2aR of the first is higher: 109 relative, control = 100 for the first, 101 relative, control = 100 for the second.

Going from B33 to B34, the He/Con_2aR rises from 101 relative, control = 100 to 106 relative, control = 100.

Going from B35 to B36, the He/Con_2aR falls from 103 relative, control = 100 to 102 relative, control = 100.

Going from B37 to B38, the He/Con_2aR rises from 103 relative, control = 100 to 105 relative, control = 100.

Going from B39 to B40, the He/Con_2aR falls from 104 relative, control = 100 to 102 relative, control = 100.

Compared with B41, B42 is lower in He/Con_2aR: 110 relative, control = 100 for the first, 100 relative, control = 100 for the second.

These binders were tested against T1, FcγRIa (assay: SPR (Biacore); He/Con_1a (FcgRIa) divided by He/Con_2b (FcgRIIb)).
Description: as §1, §2

First: B1
Second: B2
The “Ia/IIb He_1a/2b” value of the first is higher: 2.4 for the first, 1.56 for the second.

First: B3
Second: B4
The “Ia/IIb He_1a/2b” value of the first is lower: 1.43 for the first, 9.64 for the second.
